The target of test [1] is P. falciparum MTRAP TSR1+2 fragment, biotinylated bait (Cd4d3+4-biotin) (P. falciparum). The test is described as follows: SPR; equilibrium (steady state affinity model); biotinylated MTRAP or TSR1+2 captured on a streptavidin-coated chip, serial dilutions of purified Semaphorin-7A injected at 20 µl/min; Biacore T100, 37°C, HBS-EP; reference flow cell with biotinylated rat Cd4d3+4. Background: In SPR one partner is held on a chip, and binding of the other changes the refractive index at the surface.

Test [2] deals with P. falciparum MTRAP entire ectodomain, biotinylated bait (Cd4d3+4-biotin) (P. falciparum). Described as above.
Test [3] deals with Human Semaphorin-7A ectodomain, natural variant E473V, biotinylated bait (human). The test is described as follows: SPR; kinetic (dissociation model fitted to a family of binding curves); biotinylated Semaphorin-7A or its variants captured on a streptavidin-coated chip, serial dilutions of purified MTRAP injected at 100 µl/min; Biacore T100, 37°C, HBS-EP.
Test [4] addresses Human Semaphorin-7A ectodomain, natural variant Q457K, biotinylated bait (human). The test is described as above.
The target of test [5] is Human Semaphorin-7A ectodomain, natural variant Q530P, biotinylated bait (human). The description is as above.
Test [6] has as its target Human Semaphorin-7A ectodomain, natural variant R207Q, biotinylated bait (human). Described as above.
The target in test [7] is Human Semaphorin-7A ectodomain, natural variant R460H, biotinylated bait (human). Described as above.
Test [8] addresses Human Semaphorin-7A ectodomain, natural variant R474L, biotinylated bait (human). The description is as above.
The target of test [9] is Human Semaphorin-7A ectodomain, natural variant R475T, biotinylated bait (human). Described as above.
In test [10] the target is Human Semaphorin-7A ectodomain, natural variant S115T, biotinylated bait (human). The test is described as above.
The target in test [11] is Human Semaphorin-7A entire ectodomain, biotinylated bait (Cd4d3+4-biotin) (human). The test is described as above.
Test [12] concerns the target purified monomeric Semaphorin-7A ectodomain (Cd4d3+4-His6) (human). Kind of test: SEC-MALS; Superdex200 10/30 in 50 mM Tris.HCl pH 7.5, 150 mM NaCl, 0.4 ml/min; Dawn Heleos-II and Optilab-Rex. (In gel filtration, larger molecules generally elute earlier.)
Test [13] has the same target. Kind of test: SEC; Superdex 200 Tricorn 10/600 in HBS-EP; nickel-purified His-tagged proteins alone and mixed at equimolar concentrations; fractions on SDS-PAGE, Coomassie.
For test [14], the target named is MTRAP TSR1+2 fragment, biotinylated bait (P. falciparum). The test is described as follows: SPR; Biacore T100; biotinylated MTRAP or TSR baits captured on a streptavidin chip, serial dilutions of purified Semaphorin-7A injected (20 µl/min for equilibrium); reference biotinylated rat Cd4d3+4; 37°C, HBS-EP.
The target of test [15] is MTRAP entire ectodomain, biotinylated bait (P. falciparum). The test is described as above.
Test [16] addresses purified monomeric Semaphorin-7A ectodomain (Cd4d3+4-His6) (human). The test is described as follows: SEC + other: amino acid analysis; peak fraction of the SEC of the equimolar mixture; amino acid composition compared with theoretical 1:1, 2:1 and 1:2 (Semaphorin-7A:MTRAP).
In test [17] the target is PNGase F-treated Semaphorin-7A, biotinylated bait (human). Kind of test: SPR; Biacore T100; biotinylated Semaphorin-7A ectodomain, PNGase F-treated form, single domains or variants captured on a streptavidin chip, purified monomeric MTRAP injected; reference biotinylated rat Cd4d3+4; 37°C, HBS-EP.
Test [18] addresses Semaphorin-7A Sema domain, biotinylated bait (human) (UniProt O75326). Described as above.
Test [19] concerns the target Semaphorin-7A entire ectodomain, biotinylated bait (human). The test is described as above.

Drawing on article PMC3499583, this text covers Kd, koff and stoichiometry N for five substances.

By Kd is commonly meant the constant that tells how readily two partners part at equilibrium. Low values mean higher affinity, high ones lower affinity. Usually koff stands for a measure of how fast the partners let go of each other. Read a low koff as slow dissociation. A word on the stoichiometry N: it is a count of units in the complex or per binding partner.

Where “and” joins values, the source holds several entries; their conditions need not be identical. Identical values can stand only once.

Sequence of UniProt O75326 (O75326 53-490): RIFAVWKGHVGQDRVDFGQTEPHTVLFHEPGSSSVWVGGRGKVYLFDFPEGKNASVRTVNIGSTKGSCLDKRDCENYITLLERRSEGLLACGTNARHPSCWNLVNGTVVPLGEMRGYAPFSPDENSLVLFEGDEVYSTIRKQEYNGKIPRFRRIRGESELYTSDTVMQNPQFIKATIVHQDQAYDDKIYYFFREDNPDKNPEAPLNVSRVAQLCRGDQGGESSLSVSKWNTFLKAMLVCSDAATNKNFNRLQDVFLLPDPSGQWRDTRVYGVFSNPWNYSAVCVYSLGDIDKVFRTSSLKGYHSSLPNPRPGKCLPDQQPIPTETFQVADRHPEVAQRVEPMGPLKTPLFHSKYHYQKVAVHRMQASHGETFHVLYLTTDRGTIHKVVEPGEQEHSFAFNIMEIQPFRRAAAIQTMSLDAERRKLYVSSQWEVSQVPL

Take “Human Semaphorin-7A entire ectodomain, soluble monomeric His-tagged (Cd4d3+4-His6), purified (domain or fragment)”: the Kd is 1940 nM and 1930 nM and 2000 nM in test [1]; 1070 nM and 850 nM and 1620 nM in test [2].

With “P. falciparum MTRAP entire ectodomain, monomeric His-tagged, purified (domain or fragment)”, the off-rate constant (koff) in test [3] was 0.056 s⁻¹ and 0.054 s⁻¹ and 0.055 s⁻¹; in [4], 0.053 s⁻¹ and 0.058 s⁻¹ and 0.056 s⁻¹; in [5], 0.05 s⁻¹ and 0.055 s⁻¹ and 0.053 s⁻¹; in [6], 0.054 s⁻¹ and 0.045 s⁻¹ and 0.05 s⁻¹; in test [7] it was 0.049 s⁻¹ and 0.051 s⁻¹ and 0.05 s⁻¹; in test [8], 0.046 s⁻¹ and 0.057 s⁻¹ and 0.052 s⁻¹. The koff in test [9] was 0.059 s⁻¹ and 0.053 s⁻¹ and 0.056 s⁻¹; in [10], 0.053 s⁻¹ and 0.047 s⁻¹ and 0.05 s⁻¹; in test [11] it was 0.058 s⁻¹ and 0.054 s⁻¹ and 0.056 s⁻¹.

Turning to “purified monomeric Semaphorin-7A ectodomain (Cd4d3+4-His6) (domain or fragment)”, the stoichiometry N in test [12] and in [13] was 2 throughout. The figures for the Kd in test [14] and in test [15] were 1960 nM and 1180 nM, respectively.

As for “monomeric His-tagged MTRAP ectodomain lacking the Cd4d3+4-tag (domain or fragment)”, in [16], the stoichiometry N was found to be 1.

For the substance “purified monomeric MTRAP (His-tagged ectodomain, analyte in SPR) (domain or fragment)”, the values for the koff in [17] and in [19] were 0.063 s⁻¹ and 0.061 s⁻¹, respectively. Further, the Kd in [18] stood at 830 nM.
